From patent publication US20230149509A1 (Genentech, published 2023)
Substitutions are numbered along the chain they refer to. Values belong to the binder of their own block, whether it stands above or below them.

Tests used:
[1] = target: T1, CD122/CD132 on human lymphocytes (CD8+ T cells and NK cells in human PBMCs) (human, UniProt P31785 23-369); assay: cell-based or functional assay
T1 sequence 1: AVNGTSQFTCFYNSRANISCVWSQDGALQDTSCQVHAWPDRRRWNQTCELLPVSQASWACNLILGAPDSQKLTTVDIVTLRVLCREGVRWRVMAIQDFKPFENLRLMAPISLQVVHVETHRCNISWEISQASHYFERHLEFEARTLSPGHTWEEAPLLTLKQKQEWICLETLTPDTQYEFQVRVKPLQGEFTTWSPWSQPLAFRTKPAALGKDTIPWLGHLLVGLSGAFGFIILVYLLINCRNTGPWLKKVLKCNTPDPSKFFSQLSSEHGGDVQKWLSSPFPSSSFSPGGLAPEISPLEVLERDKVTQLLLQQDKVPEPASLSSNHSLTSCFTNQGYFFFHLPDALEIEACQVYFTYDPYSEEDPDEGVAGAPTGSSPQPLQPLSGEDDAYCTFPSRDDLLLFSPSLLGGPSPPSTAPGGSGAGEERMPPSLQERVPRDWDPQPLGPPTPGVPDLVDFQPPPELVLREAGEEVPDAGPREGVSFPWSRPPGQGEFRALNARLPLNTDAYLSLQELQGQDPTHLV
T1 sequence 2: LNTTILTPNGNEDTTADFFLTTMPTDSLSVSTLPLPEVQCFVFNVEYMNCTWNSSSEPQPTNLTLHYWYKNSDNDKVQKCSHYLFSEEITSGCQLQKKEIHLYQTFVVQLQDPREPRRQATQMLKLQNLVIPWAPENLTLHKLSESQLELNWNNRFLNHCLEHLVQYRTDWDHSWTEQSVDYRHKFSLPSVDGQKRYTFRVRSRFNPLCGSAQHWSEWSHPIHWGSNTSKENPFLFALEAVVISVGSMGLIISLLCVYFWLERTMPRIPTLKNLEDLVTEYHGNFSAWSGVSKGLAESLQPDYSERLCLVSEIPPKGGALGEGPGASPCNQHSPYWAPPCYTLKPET

[2] = target: T2, CD122/CD132 on cynomolgus monkey lymphocytes (CD8+ T cells and NK cells in cynomolgus PBMCs) (cynomolgus monkey, UniProt Q38J85 27-551; A0A2K5VGJ6 23-369); assay: cell-based or functional assay
T2 sequence (looked up) 1: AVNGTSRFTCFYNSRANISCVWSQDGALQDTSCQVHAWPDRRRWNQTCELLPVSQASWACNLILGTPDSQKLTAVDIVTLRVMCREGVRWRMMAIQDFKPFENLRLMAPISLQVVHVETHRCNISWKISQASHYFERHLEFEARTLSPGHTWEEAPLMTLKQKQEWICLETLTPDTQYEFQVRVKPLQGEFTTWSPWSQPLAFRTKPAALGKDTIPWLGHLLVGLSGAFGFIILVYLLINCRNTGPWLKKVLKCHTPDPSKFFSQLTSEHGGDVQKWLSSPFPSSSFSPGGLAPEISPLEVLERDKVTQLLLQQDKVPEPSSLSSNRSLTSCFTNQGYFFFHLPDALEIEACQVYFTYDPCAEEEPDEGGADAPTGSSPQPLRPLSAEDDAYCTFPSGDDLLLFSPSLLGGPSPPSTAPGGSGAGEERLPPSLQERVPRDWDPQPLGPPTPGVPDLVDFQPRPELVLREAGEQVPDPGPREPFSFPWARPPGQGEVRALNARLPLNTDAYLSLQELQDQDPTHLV
T2 sequence (looked up) 2: T1 sequence 2 with T14A, A16T, T22S, H141R, T228S, A326P

cynomolgus monkey FcRn = target: T3, cynomolgus monkey FcRn (cynomolgus monkey, UniProt Q8SPV9 24-297; Q8SPW0 21-119); assay: BLI, pH 6.0; tested as the mixture
T3 construct: The construct is not described
T3 sequence (Q8SPV9 24-297 limits assumed, chain 1 of 2): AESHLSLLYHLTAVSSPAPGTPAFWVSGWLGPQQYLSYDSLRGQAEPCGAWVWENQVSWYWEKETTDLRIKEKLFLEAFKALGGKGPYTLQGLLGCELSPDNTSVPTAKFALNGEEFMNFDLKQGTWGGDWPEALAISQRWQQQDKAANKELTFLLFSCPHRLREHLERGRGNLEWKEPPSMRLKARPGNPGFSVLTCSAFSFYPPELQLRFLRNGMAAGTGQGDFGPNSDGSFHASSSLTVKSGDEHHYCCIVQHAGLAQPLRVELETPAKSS
T3 sequence (Q8SPW0 21-119 limits assumed, chain 2 of 2): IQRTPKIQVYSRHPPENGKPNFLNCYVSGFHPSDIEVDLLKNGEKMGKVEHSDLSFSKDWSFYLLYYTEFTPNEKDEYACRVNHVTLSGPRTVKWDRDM

mouse FcRn = target: T4, mouse FcRn (mouse, UniProt Q61559 22-297; P01887 21-119); assay: BLI, pH 6.0; tested as the mixture
T4 construct: The construct is not described
T4 sequence (looked up): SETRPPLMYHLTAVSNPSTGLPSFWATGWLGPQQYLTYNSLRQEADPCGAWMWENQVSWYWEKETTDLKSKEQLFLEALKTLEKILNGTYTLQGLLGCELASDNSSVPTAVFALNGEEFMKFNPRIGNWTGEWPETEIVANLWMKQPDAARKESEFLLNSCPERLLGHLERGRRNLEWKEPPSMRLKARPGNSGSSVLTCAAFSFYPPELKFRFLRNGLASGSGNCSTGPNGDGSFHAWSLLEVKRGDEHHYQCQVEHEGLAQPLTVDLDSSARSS
T4 sequence (b2m, looked up): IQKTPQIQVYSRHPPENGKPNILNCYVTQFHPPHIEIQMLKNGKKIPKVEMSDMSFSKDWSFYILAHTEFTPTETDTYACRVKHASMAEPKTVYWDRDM

human FcRn = target: T5, human FcRn (human, UniProt P55899 24-297; P61769 21-119); assay: BLI, pH 6.0; tested as the mixture
T5 construct: The construct is not described; also called human neonatal Fc receptor

[3] = target: T6, human complement component 1q (C1q) (human, UniProt P02745 23-245; P02746 28-253; P02747 29-245); assay: BLI; tested as the mixture XENP24306+XENP32803
T6 construct: The subunit composition is from general knowledge; also called human C1q
T6 sequence (P02745 23-245 limits assumed, chain 1 of 3): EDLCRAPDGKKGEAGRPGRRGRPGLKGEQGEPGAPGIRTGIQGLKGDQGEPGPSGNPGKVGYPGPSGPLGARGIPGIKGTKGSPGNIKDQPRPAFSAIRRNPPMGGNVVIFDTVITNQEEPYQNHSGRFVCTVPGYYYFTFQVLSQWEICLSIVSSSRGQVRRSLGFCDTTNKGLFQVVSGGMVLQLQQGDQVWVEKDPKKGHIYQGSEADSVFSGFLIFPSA
T6 sequence (P02746 28-253 limits assumed, chain 2 of 3): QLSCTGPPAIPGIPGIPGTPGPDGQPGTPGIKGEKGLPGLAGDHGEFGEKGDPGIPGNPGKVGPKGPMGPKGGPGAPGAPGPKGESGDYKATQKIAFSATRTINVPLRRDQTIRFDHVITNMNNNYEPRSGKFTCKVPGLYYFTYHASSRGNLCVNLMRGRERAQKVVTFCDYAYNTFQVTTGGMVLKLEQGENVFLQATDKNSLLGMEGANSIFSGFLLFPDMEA
T6 sequence (P02747 29-245 limits assumed, chain 3 of 3): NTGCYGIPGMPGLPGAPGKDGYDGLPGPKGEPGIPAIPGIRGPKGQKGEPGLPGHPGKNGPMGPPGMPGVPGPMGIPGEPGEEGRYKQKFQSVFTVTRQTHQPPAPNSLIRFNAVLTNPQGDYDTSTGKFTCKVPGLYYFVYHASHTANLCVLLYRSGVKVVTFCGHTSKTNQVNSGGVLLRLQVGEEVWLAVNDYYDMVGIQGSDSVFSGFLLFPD

CD8+ T cell proliferation (Ki67+) in human PBMCs, EC50 [1]: 12.7 µg/mL
NK-cell proliferation (Ki67+) in human PBMCs, EC50 [1]: 1.2 µg/mL
potency on CD8+ terminal effector T cell proliferation (Ki67) in human PBMC, fold lower than XENP22853 (wild-type IL-15/wild-type IL-15Rα heterodimer Fc fusion) [1]: ~400 fold
potency on CD8+ terminal effector T cell proliferation (Ki67) in human PBMC, fold lower than recombinant wild-type IL-15 [1]: ~900 fold
CD8+ T cell proliferation in cynomolgus monkey PBMCs, EC50 [2]: 3.8 µg/mL
NK-cell proliferation in cynomolgus monkey PBMCs, EC50 [2]: 0.5 µg/mL
binding result (cynomolgus monkey FcRn): binds
binding result (mouse FcRn): binds
binding result (human FcRn): binds
binding result [3]: no binding
B1: XENP24306 (Fc fusion)
chain 1: NWVNVISDLKKIEDLIQSMHIDATLYTESNVHPSCKVTAMKCFLLELQVISLESGDASIHDTVQDLIILANNSLSSNGNVTESGCKECEELEEKNIKEFLQSFVHIVQMFINTSGGGGSEPKSSDKTHTCPPCPAPPVAGPSVFLFPPKPKDTLMISRTPEVTCVVVDVKHEDPEVKFNWYVDGVEVHNAKTKPREEEYNSTYRVVSVLTVLHQDWLNGKEYKCKVSNKALPAPIEKTISKAKGQPREPQVYTLPPSREEMTKNQVSLTCDVSGFYPSDIAVEWESDGQPENNYKTTPPVLDSDGSFFLYSKLTVDKSRWEQGDVFSCSVLHEALHSHYTQKSLSLSPGK
chain 2: ITCPPPMSVEHADIWVKSYSLYSRERYICNSGFKRKAGTSSLTECVLNKATNVAHWTTPSLKCIRGGGGSEPKSSDKTHTCPPCPAPPVAGPSVFLFPPKPKDTLMISRTPEVTCVVVDVKHEDPEVKFNWYVDGVEVHNAKTKPREEQYNSTYRVVSVLTVLHQDWLNGKEYKCKVSNKALPAPIEKTISKAKGQPREPQVYTLPPSREQMTKNQVKLTCLVKGFYPSDIAVEWESNGQPENNYKTTPPVLDSDGSFFLYSKLTVDKSRWQQGNVFSCSVLHEALHSHYTQKSLSLSPGK
notes: All experiments used a mixture of XENP24306 (~82%) and XENP32803 (~18%), printed as 'XENP24306+XENP32803'; Each result is written once for each of the two members; also called XmAb24306; XENP24306+XENP32803 (the ~82% component of the tested combination)

CD8+ T cell proliferation (Ki67+) in human PBMCs, EC50 [1]: 12.7 µg/mL
NK-cell proliferation (Ki67+) in human PBMCs, EC50 [1]: 1.2 µg/mL
potency on CD8+ terminal effector T cell proliferation (Ki67) in human PBMC, fold lower than XENP22853 (wild-type IL-15/wild-type IL-15Rα heterodimer Fc fusion) [1]: ~400 fold
potency on CD8+ terminal effector T cell proliferation (Ki67) in human PBMC, fold lower than recombinant wild-type IL-15 [1]: ~900 fold
CD8+ T cell proliferation in cynomolgus monkey PBMCs, EC50 [2]: 3.8 µg/mL
NK-cell proliferation in cynomolgus monkey PBMCs, EC50 [2]: 0.5 µg/mL
binding result (cynomolgus monkey FcRn): binds
binding result (mouse FcRn): binds
binding result (human FcRn): binds
binding result [3]: no binding
B2: XENP32803 (Fc fusion)
chain 1: B1 chain 1
chain 2: B1 chain 2 with K100T
notes: All experiments used a mixture of XENP24306 (~82%) and XENP32803 (~18%), printed as 'XENP24306+XENP32803'; Each result is written once for each of the two members; also called XENP24306+XENP32803 (the ~18% component of the tested combination); IL15/IL15Rα heterodimeric protein
